Test results from the supplement of paper PMC12042874.
± gives the uncertainty stated by the source.

Assay: amyloid nucleation score (Sup35N fusion, yeast selection) (log enrichment); library NNK3; higher = more nucleation; inactive = no reads after selection
Summary of the method: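 On medium lacking adenine and uracil, psi-negative yeast expressing peptides of 20 random codons fused to Sup35N were grown 7 days at 30°C after a 24-hour induction with 100 μM copper sulfate. Illumina sequencing of input and output plasmid inserts gave the reads, and sequences under 100 input reads were excluded. The nucleation score is the DiMSum log enrichment of output over input reads, centred on the mode score of non-aggregating sequences.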

| Substance | amyloid nucleation score |
| --- | --- |
| NFITRWCGFSGSA | 0.608 ± 0.2 |
| FCFYRKKGVVGCILFYACFR | inactive |
| RVTVPDVDCGKASWSPGKVC | inactive |
| ALSVFRGLCVLENFSKISGC | inactive |
| LPAEMELVWHRRMNLP | inactive |
| FLAGDWSKGFNKYYTYYISK | inactive |
| IKPCGCSVLDIRT | inactive |
| AIRFVNPMFSFWVSNWNYAG | inactive |
| SLWPSRNCVDEEVFDFSDKS | inactive |
| TFLRQGMNSDISYLVRFGGN | -0.057 ± 0.47 |
| IVTYLLFDYHNPTRVSYYEC | inactive |
| NLFSRIVHSGLRMSTNCILI | inactive |
| ECYIVWFLRLCSSGVYVYLR | inactive |
| SMKEVLMTSGTSNVITSGGD | inactive |
| FFIDFVGTRCFN | inactive |
| RSLFHSAFEFRFLGLTECTY | inactive |
| RCECVPPNQTRCYQRLASS | inactive |
| VCSVTFMLVLLCMRHCLITR | inactive |
| AVYSWCARTYSILSTLRGEF | inactive |
| KKYLTNVDLNVSN | inactive |
| KRCRFVVIFKSGIVTLWKLF | 0.568 ± 0.42 |
| FLVWDFRSERKRKKI | inactive |

| Substance | amyloid nucleation score |
| --- | --- |
| HCFIDNKMLPYVMCYPDKKR | inactive |
| FHTWISGLPEVHWGVLEVRW | inactive |
| IAFGVLVDDSDCCIDTYEEE | inactive |
| VDWNRTFEIKSVEGDVKGAL | inactive |
| FPYSKIRCLCDGRNDRLGGL | -0.043 ± 0.67 |
| RKACYLLVI | inactive |
| WNLSSFININPSYYSDTWHG | 2.08 ± 0.071 |
| PTLCNRGLACDEHSHR | inactive |
| LSSCMWDGPFFNCRVMKLSG | inactive |
| SGPSGSRCGDITLDTPPVLL | inactive |
| FGNINLCMCFWKMEIECLTR | inactive |
| FDLTWSIVEHFHVWLLRFSF | inactive |
| TLLFY | inactive |
| QVNKFCYCMVDKLVVVH | 2.27 ± 0.074 |
| RACYLF | inactive |
| FSVSDSFP | inactive |
| YITLRGLWRYCQVMLVYVWK | inactive |
| FKGLVVMKGLLNMIGGGACH | 0.27 ± 0.4 |
| FFFYLPICTLGILYLFDCKA | 0.386 ± 0.2 |
| WLNEM | inactive |
| IVFSGNLLVGNGFGVLKRKT | 1.32 ± 0.14 |
| QSPRRRMQSDIWS | inactive |

| Substance | amyloid nucleation score |
| --- | --- |
| ITNFIRWNTNV | inactive |
| GVDSARQRSDHVNRERSSGC | inactive |
| SKGSWHVFNKGSEWVKYFGM | inactive |
| LISMYHHCSGHLVAQDTVSV | inactive |
| DEIPCDVRGLMPTRVSTLNL | inactive |
| MTCSQSECARVIVSRCHVWP | inactive |
| SHAEVCQLSTSGPL | inactive |
| IYTLSTLLWFWSAWSILAVI | -0.197 ± 1.1 |
| CSWRNRYCMLRRELFGAWRV | inactive |
| VLVIIKSD | inactive |
| CHKVLWSSVKTVDFMLSNMG | inactive |
| RTYDVCQTRVCKRAKWEGDT | inactive |
| CNDLVYFMMFVLYLVTRWET | inactive |
| KHYDLGFQYFSR | inactive |
| SMFMLCVSADGEFFNCGTNH | inactive |
| WSFNGSNECISRLDINLNVF | 0.407 ± 0.15 |
| VQSSPVYMFMTNNSF | 1.8 ± 0.056 |
| TETASNSTRYSFL | inactive |
| RWKMTCFSSYNG | inactive |
| RSSVYGQLILVPHYFDCLNL | inactive |
